Reference: publication PMC7956749, “Establishment of Novel Protein Interaction Assays between Sin3 and REST Using Surface Plasmon Resonance and Time-Resolved Fluorescence Energy Transfer” (International Journal of Molecular Sciences, 2021)
“Also recorded” adds a separate entry of the source. Where no end group is shown, it is not given here.

Assays:
biotinylated REST [1] = assay: TR-FRET PAH1-REST interaction (anti-GST/anti-FLAG-Eu3+ cryptate donor, SA-XL665 acceptor); format: binding; details: for TR-FRET signal: 665 nm normalized to 620 nm, PAH1 peptide and biotinylated REST 1 to 10,000 nM, n = 4; for dynamic range: TR-FRET 665/620 nm, 384-well, 20 µL, 50 mM Tris-HCl pH 7.6, with biotinylated REST; for S/B / S/N: n=4
Excerpt: Finally, in order to establish a high-throughput and high-dynamic-range assay mimicking the binding surface between PAH1 and REST, we tried to apply the TR-FRET method for monitoring the interaction as shown in Figure 3a. We chose Europium cryptate (Eu^3+)-conjugated antibodies against GST or FLAG as a donor and SA-conjugated XL665 (a phycobiliprotein pigment derived from red algae) as an acceptor, for TR-FRET. If GST-PAH1 or PAH1-FLAG binds biotinylated REST and then transfers Eu^3+’s energy to XL665, it results in a change of the wavelength from 620 nm (a […] fluorescence derived from Eu^3+ alone) to 665 nm (a long-lived fluorescence converted by FRET) (Figure 3a). […] We prepared a serial dilution of GST-PAH1 or PAH1-FLAG and biotinylated REST ranging from 1 to 10,000 nM (Figure 3b) and then determined the 665 nm fluorescence normalized to 620 nm. […] We also checked whether GST-PAH1-anti-GST-Eu^3+ or FLAG-PAH1-anti-FLAG-Eu^3+ complexes caused any FRET with XL665 (Supplementary Figure S1e), and could not observe any change in wells with these alone. We assigned thresholds for high-throughput and high-standard assay as signal-to-background ratio (S/B) and Z’ factors of more than 5 and 0.8, respectively. We narrowed down optimal conditions to GST-PAH1 at 10, 100, 1000 or 10,000 nM in the presence of biotinylated REST at 1000 or 10,000 nM and that PAH1-FLAG and biotinylated REST at 10,000 nM. The S/B, signal-to-noise ratio (S/N), Z’ factor and coefficient of variation (CV) are shown in the Supplementary Table S1. We also assigned stringent statistical significance and then identified similar results by the S/B and Z’ factor (Figure 3b). To exclude the possibility that Eu^3+ antibodies directly bound XL665 causing FRET, we also determined the fluorescence level in wells including anti-GST-Eu^3+ or anti-FLAG-Eu^3+ and XL665. […] The results were 772 ± 9.1 and 436 ± 9.1 665/620 nm, respectively (n = 6). Although we observed very good dynamic range data at 1 h after preparing reaction mixtures, we obtained similar high-dynamic range data even at 18 h after that (data not shown). From 10 to 1000 nM in the concentration of biotinylated REST, 1000 or 10,000 nM GST-PAH1 induced maximal signals (Figure 3b, left, light blue and orange). The dynamic range of the assay was 31-fold, whereas only 10,000 nM PAH1-FLAG was required for the same amount of biotinylated REST to provide a maximal response and the dynamic range was 7-fold (Figure 3b, right, orange). We ultimately succeeded in establishing a high-standard assay, especially using GST-PAH1 and biotinylated REST.
TR-FRET reagents were prepared by diluting the anti-GST Eu3+ cryptate or anti-FLAG Eu3+ cryptate and SA-XL665 in 50 mM Tris-HCl (pH 7.6) buffer containing 15 mM NaCl, 140 mM KCl, 0.5 mM MgCl2, 0.1% BSA and 0.8 M KF with and without biotinylated REST and each PAH1 peptide. The reaction mix was 20 µL in 384-well format according to the manufacturer’s instructions. The fluoride ion avoids interference with fluorescence properties by protecting free coordination sites between conjugate “cage” and europium ions. One hour or more after preparation, we measured the intensities at 665 and 620 nm wavelength using PHERAstar FS (BMG biotech, Offenburg, Germany).
Values are expressed as the mean ± standard error of the mean (SEM) from indicated replicate samples in each experimental group and the experiments were replicated to ensure consistency. The statistical significance was determined using the Student’s t-test. Values marked as “*” were considered to be statistically significant if their p values were <0.00005. Signal-to-background ratio (S/B), signal-to-noise ratio (S/N) and Z’-factor were calculated by the formula described in our previous report. Additionally, the general criterion sufficient to perform HTS was validated in our previous report. […]

biotinylated REST [2] = assay: SPR kinetics of PAH1 peptides on captured biotinylated REST (Biacore T200, SA chip); format: binding; details: for Ka (association rate) / Kd (dissociation rate): mean ± SEM, n = 3; for binding to biotinylated REST: SPR sensorgram, SA chip, 0.625 to 10 µM analyte
Excerpt: In order to validate a binding surface between Sin3B and REST, we utilized the structural information of PDB (2CZY) and designed longer peptides of binding surfaces with a tag and a protease recognition site as shown in Figure 1a. We asked the RIKEN Systems and Structural Biology Center (Yokohama, Japan) to generate recombinant peptides using E. coli. Finally, we obtained biotinylated REST, GST-PAH1 and PAH1-FLAG. In order to validate whether biotinylated REST binds two PAH1 peptides, we designed an SPR assay using a streptavidin (SA) sensor chip as shown in Figure 1b. Biotinylated REST should be bound as a ligand followed by the injection of PAH1 peptides as an analyte.
We chose the amino acid sequences of PAH1 and REST from information based on the crystal structure of a PAH1/REST complex (PDB: 2CZY). We then asked the scientists with the RIKEN institute to produce recombinant PAH1 and REST peptides. They generated recombinant peptides such as GST-PAH1, PAH1-FLAG and biotinylated REST using E. coli. We used these peptides in this study.
Values are expressed as the mean ± standard error of the mean (SEM) from indicated replicate samples in each experimental group and the experiments were replicated to ensure consistency. The statistical significance was determined using the Student’s t-test. Values marked as “*” were considered to be statistically significant if their p values were <0.00005. Signal-to-background ratio (S/B), signal-to-noise ratio (S/N) and Z’-factor were calculated by the formula described in our previous report. Additionally, the general criterion sufficient to perform HTS was validated in our previous report. In the SPR experiments, a statistical trend was considered to be statistically significant if its p-value was 1 > p > 0.05.

biotinylated REST [3] = assay: SPR competitive binding, GST-PAH1 plus PAH1-FLAG on captured biotinylated REST
Protocol: In order to determine whether another PAH1 peptide, PAH1-FLAG, competitively binds biotinylated REST in the presence of GST-PAH1, we injected 10 µM GST-PAH1, 10 µM PAH1-FLAG or 5 µM GST-PAH1 and 5 µM PAH1-FLAG into the flow cell capturing biotinylated REST, all of which could change the sensorgram, even though their rates of association/dissociation were different (Figure 2c). […] As a result, the equal molarity of both PAH1 peptides changed the sensorgram-like intermediate form (Figure 2c). The association rate was faster than GST-PAH1, while the dissociation rate was slower than PAH1-FLAG.

[4] = target: T1, PAH1-FLAG (paired amphipathic helix 1 domain of Sin3B with a FLAG tag) (UniProt Q62141 31-107); assay: SPR; well-used sensor chip (about 100 regenerations)
T1 chain: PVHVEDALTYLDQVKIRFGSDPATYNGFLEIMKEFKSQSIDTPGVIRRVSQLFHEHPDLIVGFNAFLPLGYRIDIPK

[5] = target: T2, GST-tagged PAH1 (paired amphipathic helix 1 domain of Sin3B) (UniProt Q62141 31-107); assay: SPR
T2 chain: T1 chain

[6] = target: T1, PAH1-FLAG (paired amphipathic helix 1 …); assay: SPR; brand-new sensor chip
[7] = TR-FRET, PAH1 10 nM, REST 1000 nM
[8] = TR-FRET, PAH1 10 nM, REST 10,000 nM
[9] = TR-FRET, PAH1 100 nM, REST 1000 nM
[10] = TR-FRET, PAH1 100 nM, REST 10,000 nM
[11] = TR-FRET, PAH1 1000 nM, REST 1000 nM
[12] = TR-FRET, PAH1 1000 nM, REST 10,000 nM
[13] = TR-FRET, PAH1 10,000 nM, REST 1000 nM
[14] = TR-FRET, PAH1 10,000 nM, REST 10,000 nM
[15] = SPR Biacore T200, SA chip with biotinylated REST, brand-new sensor chip, analyte 0.625 to 10 µM, 30 µL/min, association 60 s, dissociation 2 min
[16] = SPR, well-used sensor chip (after around 100 regenerations) with biotinylated REST

B1: GST-PAH1: recombinant glutathione S-transferase (GST)-tagged PAH1 peptide of Sin3B, produced in E. coli (protein)
chain: T1 chain
modifications: left off: GST, end not stated, kept | histidine-tag-like sequence, end not stated, state not stated
notes: recombinant glutathione S-transferase (GST)-tagged PAH1 peptide of Sin3B, produced in E. coli
In the case of B1, the “TR-FRET signal” value (biotinylated REST [1]) is reported as “substantial signals; also recorded: remarkably higher dynamic range and accuracy”, the dynamic range (biotinylated REST [1]) is reported as 31 fold and the S/B (biotinylated REST [1]; [7]) is reported as 26.6. The S/N (biotinylated REST [1]; [7]) was 469.9, the S/B (biotinylated REST [1]; [8]) was 24.2 and the S/N (biotinylated REST [1]; [8]) was 1,114.3. The S/B (biotinylated REST [1]; [9]) was 27.0, the S/N (biotinylated REST [1]; [9]) was 478.7 and the S/B (biotinylated REST [1]; [10]) was 26.7. The S/N (biotinylated REST [1]; [10]) was 1230.7, the S/B (biotinylated REST [1]; [11]) was 29.2 and the S/N (biotinylated REST [1]; [11]) was 517.8. The S/B (biotinylated REST [1]; [12]) was 31.1, the S/N (biotinylated REST [1]; [12]) was 1441.0 and the S/B (biotinylated REST [1]; [13]) was 7.7. The S/N (biotinylated REST [1]; [13]) was 123.9, the S/B (biotinylated REST [1]; [14]) was 11.7 and the S/N (biotinylated REST [1]; [14]) was 515.1. For the same molecule, the Ka (association rate) (biotinylated REST [2]; [15]) was 2.38e+06 ± 6.7e+11 M⁻¹ s⁻¹, the “Kd (dissociation rate)” value (biotinylated REST [2]; [15]) was 1.35 ± 0.82 × 10^−3 1/s and the “association and dissociation with biotinylated REST” value (biotinylated REST [2]; SPR sensorgram after ligand capturing, GST-PAH1 10 µM) was “robust association and subsequent dissociation”. For the same molecule, the “binding to biotinylated REST” value (biotinylated REST [2]) was “bound biotinylated REST in a concentration-dependent manner” and the “affinity/association compared with PAH1-FLAG” value (biotinylated REST [2]; SPR, statistical comparison GST-PAH1 vs PAH1-FLAG, Student's t-test) was “not significant but had a slower trend than PAH1-FLAG, resulting in a significantly increased affinity to REST; also recorded: significantly greater than that of PAH1-FLAG”.

B2: PAH1-FLAG: recombinant FLAG-tagged PAH1 peptide of Sin3B, produced in E. coli (protein)
chain: T1 chain
modifications: left off: FLAG, end not stated, kept | histidine-tag-like sequence, end not stated, state not stated
notes: recombinant FLAG-tagged PAH1 peptide of Sin3B, produced in E. coli
In the case of B2, the “TR-FRET signal” value (biotinylated REST [1]) is reported as “fewer signals only at high reagent concentrations”, the dynamic range (biotinylated REST [1]) is reported as 7 fold and the S/N (biotinylated REST [1]; [14]) is reported as 165.3. For the same molecule, the “concentration inducing maximal signal” value (biotinylated REST [1]; TR-FRET, biotinylated REST 10 to 1000 nM) was 10,000 nM, the “Ka (association rate)” value (biotinylated REST [2]; [15]) was 1.93 ± 0.17 × 10^3 Ms and the “Kd (dissociation rate)” value (biotinylated REST [2]; [15]) was 3.83 ± 0.39 × 10^−3 1/s. For the same molecule, the “binding to biotinylated REST” value (biotinylated REST [2]) was “bound biotinylated REST in a concentration-dependent manner”, the “Ka (association rate)” value (biotinylated REST [2]; [16]) was 2.31 ± 0.78 × 10^3 Ms and the “Kd (dissociation rate)” value (biotinylated REST [2]; [16]) was 3.59 ± 0.13 × 10^−3 1/s. The “affinity on well-used vs brand new chip” value (biotinylated REST [2]; SPR, PAH1-FLAG, well-used vs brand-new chip with REST) was “not significantly different, but had a trend of lower affinity when compared to the brand new one”, the “competitive binding to biotinylated REST” value (biotinylated REST [3]; 10 µM GST-PAH1, 10 µM PAH1-FLAG or 5 µM of each) was “shares the same binding surface as GST-PAH1” and the “rates of association and dissociation vs GST-PAH1” value (biotinylated REST [3]; 10 µM each) was “far more quickly than in GST-PAH1”.

APQLIMLANVALTGE (also: biotin, site not given here) [biotinylated REST peptide (RE-1 silencing transcription factor, binding surface for Sin3B PAH1)] gave a Kd [4] of 1690 nM, a Kd [5] of 0.468 nM and a Kd [6] of 2030 nM.
